How the values were obtained:
[1] = molecular target: T7 RNA polymerase mutant GP1(lys222) (Bacteriophage T7, UniProt P00573 SEQ:1-883, E222K); assay: EMSA; +/-5e3; 20-fold below wild-type; more easily disrupted by lambda DNA; 25 C; conditions: label: 32P
Procedure: (§1) FIG. 8: Binding of a T7 Promoter by Wild-type T7 RNA Polymerase and GP1(lys222). […] Lane 1-no RNA polymerase, 5 µM promoter; Lane 2-26.5 nM GP1(lys222), 5 µM promoter; Lane 3-132.7 nM GP1(lys222), 5 µM promoter; Lane 4-26.5 nM GP1(lys222), 5 µM promoter, 3 µg lambda DNA; Lane 5-132.7 nM GP1(lys222), 5 µM promoter, 3 µg lambda DNA; Lane 6-12.9 nM T7 RNA polymerase, 5 µM promoter, Lane 7-64.7 nM T7 RNA polymerase, 5 µM promoter; Lane 8-12.9 nM T7 RNA polymerase, 5 µM promoter, 3 µg lambda DNA; Lane 9-64.7 nM T7 RNA polymerase, 5 µM promoter, 3 µg lambda DNA. Complex=Position of the enzyme/promoter complexes. Promoter=Position of the unbound promoter oligo.
(§2) 12. Estimation of Promoter Binding. The ability of T7 RNA polymerase and GP1(lys222) to bind a T7 promoter was determined by a gel-retardation method [Muller, D. K., et al., *Biochemistry*, 27: 5763-5771 (1988)]. […] The promoter/polymerase complexes were then cut out of the gel, and the amount of promoter contained in the complexes was measured by liquid scintillation.

[2] = molecular target: T7 RNA polymerase (wild-type) (Bacteriophage T7, UniProt P00573 SEQ:1-883); assay: EMSA; +/-2.2e5; 10 mM K phosphate pH 7.8, 1 mM EDTA, 20 mM NaCl, 25 C; conditions: label: 32P
Procedure: as §1, §2

B1: 24 bp T7 promoter oligonucleotide (dsDNA)
DNA 1: ATTAATACGACTCACTATAGGACT
DNA 2: AGTCCTATAGTGAGTCGTATTAAT
Ka [1]: 14000 M⁻¹
Ka [2]: 280000 M⁻¹

Reference: US5385834, “Mutant T7 RNA polymerase GP1(lys222) exhibiting altered promoter recognition” (Georgia Tech Research Corporation)
